Test results as given in article PMC6135800, “STAT3-coordinated migration facilitates the dissemination of diffuse large B-cell lymphomas” (Nature Communications, 2018).

Biological target: T1, FLAG-RhoGDI-γ (immobilized) (UniProt Q99819 1-225)
T1 construct: RhoGDIγ, full-length cDNA NM_001176 inserted into pFLAG-CMV2
T1 sequence (looked up): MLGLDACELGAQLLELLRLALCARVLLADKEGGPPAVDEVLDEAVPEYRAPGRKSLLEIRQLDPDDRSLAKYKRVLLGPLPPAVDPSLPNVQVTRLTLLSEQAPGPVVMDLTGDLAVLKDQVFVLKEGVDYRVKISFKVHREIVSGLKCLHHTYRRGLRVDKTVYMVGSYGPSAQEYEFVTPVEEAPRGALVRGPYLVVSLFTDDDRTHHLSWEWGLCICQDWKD
Assay: pull-down; competition assay: purified GST-RhoH and RhoA incubated with immobilized FLAG-RhoGDI-γ for 2 h; increasing doses of RhoH
Conditions: both partners purified

binding result: binds
B1: GST-RhoH (natural protein, UniProt Q15669 1-191, looked up)
chain: MLSSIKCVLVGDSAVGKTSLLVRFTSETFPEAYKPTVYENTGVDVFMDGIQISLGLWDTAGNDAFRSIRPLSYQQADVVLMCYSVANHNSFLNLKNKWIGEIRSNLPCTPVLVVATQTDQREMGPHRASCVNAMEGKKLAQDVRAKGYLECSALSNRGVQQVFECAVRTAVNQARRRNRRRLFSINECKIF
notes: RhoH; the only GST vector named is pEBG-RhoH, made by inserting full-length cDNAs (RhoH: NM_001278369); also called GST-tagged RhoH; source: E. coli DH5α, IPTG induction, purified (glutathione-Sepharose, eluted with reduced glutathione)
